First the molecules themselves.
B1: G001_gp1_V10_VRC01c_2021-0106 (antibody, V domains shown)
VH: QVQLVQSGAEVKKPGASVKVSCKASGYTFTDYYIHWVRQAPGQGLEWMGWLNPNSGGTNYAQKFQDWVTMTRDTSINTAYMELSRLRSDDTAVYYCASSLSGYGSFSFDYWGQGTLVTVSS
VL: EIVLTQSPGTLSLSPGERATLSCRASQSGSSRSLAWYQQKPGQAPRLLIYGASSRATGIPDRFSGSGSGTDFTLTINRLEPEDSAVYYCQQYDSFGQGTKLEIK
B2: G001_gp1_V10_VRC01c_2021-0093 (antibody, V domains shown)
VH: QVQLVQSGAEVHNPGASVKVSCKASGYTFSDHYIHWVRQAPGQGLEWMGWINPNSGGTNYAQKFQGWVSMTRDTSITTAYMELSRLRSADTAVYYCAIPGICPGGNCYSYYFDSWGQGTLVSVSS
VL: EIVLTQSPGTLSVSPGERATLSCRSSQSVSSLAWYQLKPGQAPRLLIYGAYNRAIGIPDRFSGSGSGTDFTLTISRLEPEDLAVYYCQQYEFFGQGTKLEIK
B3: G001_gp1_V10_VRC01c_2021-0104 (antibody, V domains shown)
VH: QVHLVQSGAEVKKPGASVKVSCKASGYSFTDYYIYWVRQAPGQGLEWMGWINPNSGGTNYAQKFQAWVTMTRDTSISTAYMELNRLTSDDTAVYYCARRTMPTTEFDSWGQGTLVTVSS
VL: EIVLTQSPGTLSLSPGERVTLSCRASQSLSNNYLAWYQQKPGQAPRLLIYGVSNRATGIPDRFRGSGSGTDFTLTISRLEPEDCAVYYCQQYVSFGQGTKLEIK
B4: G001_gp1_V10_VRC01c_183 (antibody, V domains shown)
VH: QVHPVQSGAEVKKPGASVKVSCEASGYTFSGYYMHWVRQAPGQGLEWMGWINLNSGGTNYAQKFQDRVTMTRDTSISTAYMELSSLRSDDTAFYYCAHNGGNGGTWYFHYWGQGTLVTVSS
VL: EIVLTQSPGTLSLSPGERATLSCRASQSVSNNYLAWYQQKPGQAPRLLIYGASRRATGIPDRFSGSGTGTDFTLTISRLEPEDSAVYYCQQYETFGPGTKVDIK
B5: G001_gp1_V10_VRC01c_2021-0097 (antibody, V domains shown)
VH: QVQLVQSGAEVKKPGASVKVSCKASGHTFTGYYMHWVRQAPGQGLEWMGWINSNSGGTNYAQKFQGWVTMTRDTSINTVYMELNRLTSDDTAVYYCAGGGRSTYYSWWFDPWGQGTLVTVSS
VL: B4 VL with N31S, N32S, R54S, T68S, S84L, Y92W, P97Q, D102E
B6: G001_gp1_V10_VRC01c_2021-0092 (antibody, V domains shown)
VH: QVQLVQSGAEVKKPGASVKVSCKASGYTFTGYYMHWVRQAPGHGLEWMGWINPNSGGSNYAQRFQGWVTMTRDTSISTAYMELTRLRSDDTAVYYCARELLAAAGTVFDYWGQGTLVTVSS
VL: B4 VL with N31S, N32S, R54S, T68S, S84F, P97Q, D102E, K104N
B7: G001_gp1_V10_VRC01c_2021-0103 (antibody, V domains shown)
VH: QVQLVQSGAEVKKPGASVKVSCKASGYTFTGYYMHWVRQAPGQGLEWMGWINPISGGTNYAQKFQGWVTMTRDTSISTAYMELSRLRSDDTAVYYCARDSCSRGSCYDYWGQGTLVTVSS
VL: QSALTQPRSVSGSPGQSVTISCTGTSSDVGGYNYVSWYQQHPGKAPKLMIYDVSKRPSGVPDRFSGSKSGNTASLTISGLQAEDEADYYCCSYEVFGGGTKLTVL
B8: G001_gp1_V10_VRC01c_176 (antibody, V domains shown)
VH: QVQLVQSGAEVKRPGASVKVSCRASGYTFTGYYMHWVRQAPGQGLEWMGWINPNSGGTNYAQKFQGRVTMTRDTSITTAYMELSRLNYDDTAVYYCARGDDSSAWRFHSWGQGTLITVSS
VL: DIQMTQSPSSLSASVGDRVTITCQASQDSSNYLNWYQQKPGKAPKLLIYDASNLETGVPSRFSGSGSGTDFTFTISSLQPEDIATYYCQQYETFGGGTKVEIK
B9: G001_gp1_V10_VRC01c_2021-0100 (antibody, V domains shown)
VH: PVQLVQSGAEVKKPGASVKVSCKASGYTFTGYYIHWVRQAPGQGLEWMGWINPNSGGTNYAQKFQGRVTMTRDTSVSTAYMELSRLRSDDTAVYYCARRLAAASGVFGVRFDPWGQGTLVTVSS
VL: B8 VL with V19I, S29I, K39R, E92D, T93F, G96P, E101D
B10: G001_gp1_V10_VRC01c_181 (antibody, V domains shown)
VH: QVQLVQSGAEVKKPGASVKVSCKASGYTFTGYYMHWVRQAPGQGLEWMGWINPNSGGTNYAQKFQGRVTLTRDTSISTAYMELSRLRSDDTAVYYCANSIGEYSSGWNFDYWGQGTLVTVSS
VL: B8 VL with S29I, D50Y, E92G, G96Q, V100L
B11: G001_gp1_V10_VRC01c_2021-0095 (antibody, V domains shown)
VH: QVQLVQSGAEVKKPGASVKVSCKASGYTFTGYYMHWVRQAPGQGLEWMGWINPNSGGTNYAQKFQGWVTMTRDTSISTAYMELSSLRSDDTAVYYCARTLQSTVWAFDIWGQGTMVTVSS
VL: B8 VL with S29I, K45Q, S65R, E92D, G96Q, K99R, V100L
B12: G001_gp1_V10_VRC01c_2021-0107 (antibody, V domains shown)
VH: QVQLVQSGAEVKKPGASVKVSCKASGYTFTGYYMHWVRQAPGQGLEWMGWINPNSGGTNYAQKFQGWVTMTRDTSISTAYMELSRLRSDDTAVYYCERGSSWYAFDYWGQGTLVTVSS
VL: DIQMTQSPSSLSASVGDRVTITCRASQSISSYLNWYQQKPGKAPKLLIYAASSLQSGVPSRFSGSGSGTDFTLTISSLQPEDFATYYCQHQGTFGQGTKVEIK
B13: G001_gp1_V10_VRC01c_2021-0090 (antibody, V domains shown)
VH: not shown
VL: DNQMTQSPSSLSASVGDRVTITCRASQGISNSLAWYQQKPGKAPKLLLYASSRLESGVPSRFSGSGSGTDYTLTISSLQPEDFATYYCQQYETFGQGTKVEIK
B14: G001_gp1_V10_VRC01c_2021-0088 (antibody, V domains shown)
VH: QVQLVQSGAEVKKPGASVKVSCKASGYTFTGYYMHWVRQAPGQGLEWMGWINPNSGGTNYAQKFQDWVTMTRDTSISTAYMELSRLRSDDTAVYFCARVKGHYDSSGGWNFDLWGRGTLVTVSS
VL: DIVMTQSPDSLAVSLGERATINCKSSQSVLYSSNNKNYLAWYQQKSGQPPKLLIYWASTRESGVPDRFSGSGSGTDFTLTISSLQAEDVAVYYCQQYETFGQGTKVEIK
B15: G001_gp1_V10_VRC01c_184 (antibody, V domains shown)
VH: QVQLVQSGAEVKKPGASVKVSCKASGYTFTAYYMHWVRQAPGQGLEWMGWINPNSGGTNYAQKFQGRVTMTRDTSITTAYMELSRLRSDDTAVYYCAIESVVRHSWFDPWGQGTLVTVSS
VL: EIVLTQSPGTLSLSPGERATLSCRASQNVSSSYLAWYQQKPGQAPRLLIYYASIRATGIPDRFSGSGSGTAFTLTISRLEPEDFAVYYCQQYEAFGQGTKVEIK
B16: G001_gp1_V10_VRC01c_182 (antibody, V domains shown)
VH: QLQLVQSGAEVKKPGASVKVSCQASGFTFSGHYMHWVRQAPGHGLEWMGWINTNSGGTNYARKFQGRVTMTRDTSISTAYMELSRLRSDDTAVYYCATSVWFGASVWNFDNWGQGSLVTVSS
VL: ENVLTQSPATLSLSPGERATLSCRASQSVSTHNLAWYQQKPGQAPRLLIYGVFSRATGIPDRFSGSGSGTDFTLTISSLEPEDTAVYYCQQYETFGQGTNVEIK
B17: G001_gp1_V10_VRC01c_2021-0108 (antibody, V domains shown)
VH: QVQLVQSGAEVKKPGASVKISCKASGYTFSGYYMHWVRQAPGQGLEWMGWINPNSGGTNYAQKFQDWVTMTRDTSISTVYMELSRLRSDDTAVYYCARDWCSGDTCYSGPTFDYWGQGTLVTVSS
VL: B15 VL with I2S, N28S, S32N, Y51G, I54S, A71D, A94T
B18: G001_gp1_V10_VRC01c_2021-0101 (antibody, V domains shown)
VH: QVHLVQSGAEVKKPGASVKVSCKASGYTFTGYSMHWVRQAPGQGLEWMGWINPNSGGTNYAQKFQGRVTMTRDTSINTGYMELSRLRSDDTAVYYCARPHSNWYFDLWGRGTLVTVSS
VL: B15 VL with N28S, S32N, Y51G, I54S, A71D, A94T
B19: G001_gp1_V10_VRC01c_2021-0098 (antibody, V domains shown)
VH: B5 VH with H27N, T30S, S53P, N77S, V79A, N84S, T87R, G98R, T103A
VL: B15 VL with N28S, Y51G, S53F, I54S, A71D, Y92W, A94T
B20: G001_gp1_V10_VRC01c_2021-0094 (antibody, V domains shown)
VH: QVQLVQSGAEVKKPGASVKVSCKASGYTFTGYYMHWVRQAPGQGLEWMGWINPNSGGTNYAEKFQGWVTMTRDTSISTAYMELRRLKSDDTAVYYCATSLGGNPGRIWDMDVWGQGTTVTVSS
VL: QSALTQPASVSGSPGQSITISCTGTSSDVGGYNFVSWYQQHPGKAPKLIIYDVTNRPSGVSNRFSGSKSGNTASLTISGLQAEDEANYYCSSYEVFGTGTKVTVL
B21: G001_gp1_V10_VRC01c_177 (antibody, V domains shown)
VH: not shown
VL: DIQMTQSPSTLSASVGDRVTITCRASQTISSWLAWYQQKPGKAPKLLIYDASSLESGVPSRFSGSGSGTEFTLTITSLQPDDFATYYCQQYETFGPGTKVDIK
B22: G001_gp1_V10_VRC01c_2021-0105 (antibody, V domains shown)
VH: QVQLVQSGAEVKKPGASVKVSCKASGYTFTGYYIHWVRQAPGQGLEWMGWINPNSGGTNYARQFEGWVTMTRDTSISTAYMELRRLRSDDTAMYYCATEDAVVAGTTFDYWGQGTLVTVSS
VL: B21 VL with T28S, I29M, D50K, E55Q, T76S, E92N, T93S, P96G, D101E
B23: G001_gp1_V10_VRC01c_2021-0099 (antibody, V domains shown)
VH: QVQLVQSGAEVKKPGASVKVSCKASGNTFTDYYMYWVRQAPGQGLEWMGWINPNSGGTNYAQKFQGRVTMTRDTSISTAYMELSRLRSDDTAVYYCAGRHYDDSSGYKAFQHWGQGTLVTVSS
VL: B21 VL with T28S, I29F, D50K, T76S, F83V, P96Q, D101E
B24: G001_gp1_V10_VRC01c_2021-0086 (antibody, V domains shown)
VH: not shown
VL: EIVMTQSPATLSVSPGERATLSCRASQSVSSNLAWYQQKPGQAPRLLIYGASTRATGIPARFSGSGSGTEFTLTISSLQSEDFAVYYCQQYQTFGQGTKLEIK
B25: G001_gp1_V10_VRC01c_2021-0096 (antibody, V domains shown)
VH: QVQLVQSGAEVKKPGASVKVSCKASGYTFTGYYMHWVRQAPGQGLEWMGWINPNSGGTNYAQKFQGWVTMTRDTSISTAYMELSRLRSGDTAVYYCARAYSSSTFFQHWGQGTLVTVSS
VL: B24 VL with F83L, Q92T, T93A, L100V

Residue numbers refer to the chain shown, from its start.

In the assay the target is eOD-GT8 (engineered outer domain germline-targeting version 8), monomer (HIV-1 gp120 engineered outer domain, …).
As for B1, the binding result is reported as “binds”.
Turning to B2, the binding result is recorded as “binds”.
For B3, the binding result is recorded as “binds”.
In the case of B4, the binding result was “binds”.
The value for B5 was “binds”; that for B6 was “binds”.
The entry for B7 is “binds”; for B8 it is “binds”; for B9 it is “binds”.
The value for B10 was “binds”; that for B11 was “binds”.
Consider B12, for which the binding result is given as “binds”.
The entry for B13 is “binds”; for B14 it is “binds”.
For B15, the binding result is reported as “binds”.
Turning to B16, the binding result is “binds”.
The value for B17 was “binds”; that for B18 was “binds”; that for B19 was “binds”.
The value for B20 was “binds”; that for B21 was “binds”.
The entry for B22 is “binds”; for B23 it is “binds”.
As for B24, the binding result is on record as “binds”.
The value for B25 was “binds”.

(Values after PMC12377726 (Proceedings of the National Academy of Sciences of the …, 2025).)
